Positions count from the first letter of the chain named.
Tests used:
[1] = target: T1, monovalent hVISTA-ECD (amino acids 32-193 of SEQ ID NO: 1 with a 7xHis tail) (human, UniProt Q9H7M9 33-193); experiment: SPR, pH 7.4 over pH 6.0
T1 construct: analyte of the SPR assays; also called huVISTA-His; human VISTA-ECD
Method: (§1) Further binding kinetic experiments were performed at various pHs on VISTA antibodies described herein by SPR as generally described in Example 9 above. Antibodies were normalized to 50 nM concentration in PBST pH 7.4 and captured on a Protein A CM5 chip (ID 4931) by injecting for 45 seconds at a 5 µL/min flow rate. An 8-point human VISTA titration ([…]) was prepared in PBST at pH 7.4, 6.9, 6.45, and 6.0. Titrations were injected over the captured antibodies for 180 seconds at 30 µL/min. Sensorgrams were fit to a 1:1 binding model in T200 evaluation software and the kinetic constants were reported.
Each table reports the data at one of the four tested pHs (7.4, 6.9, 6.45, and 6.0, respectively). The 8-point hVISTA titration used in these assays was chosen to provide increased confidence in kinetic values reported at neutral pH conditions. A relatively stringent cutoff for non-binding was applied in this assay. Certain progeny of P1-061029 antibody (P1-068757, ‘759, ‘765, ‘771, and ‘775) show no binding to hVISTA at micromolar concentrations at pH 7.4, while ‘761 and ‘767 show no binding to hVISTA at 100 nM at pH 7.4 but do show binding to hVISTA at micromolar concentrations.

[2] = target: T1, monovalent hVISTA-ECD (amino acids …); experiment: SPR, Ab on Protein A, hVISTA 100-7.8 nM, pH 7.4
Method: as §1

[3] = target: T1, monovalent hVISTA-ECD (amino acids …); experiment: SPR 37C, Ab on Protein A, hVISTA-ECD 50-0.2 nM, pH 6.0
Method: (§2) Surface plasmon resonance (SPR) analysis was performed to measure the association rates (defined as ka or kₒₙ, 1/Ms units), dissociation rates (defined as kd or koff, s⁻¹ units) and affinity constants (defined as KD, M units) for VISTA Abs at acidic and physiological pHs using a Biacore® T200 instrument (GE Healthcare). […] Antibodies were diluted to 20 nM in PBST pH 7.4, and were captured across active biosensor flow cells at 5 ul/min for 50 seconds. A concentration series of 50 - 0.2 nM monovalent hVISTA-ECD (SEQ ID NO: 325) was prepared in pH 7.4 and 6.0 running buffers, and was injected over the captured antibodies at 40 ul/min to measure association and dissociation. Two 15 second injections of 10 mM glycine pH 1.5 were used to regenerate the Protein A capture surface between assay cycles. Rate constants kₐ (kₒₙ) and kd (kₒff) were derived from reference flow cell and 0 nM blank-subtracted sensorgrams, and were fit to a 1:1 binding model in Biacore® T200 Evaluation Software v.2.0.

[4] = target: T1, monovalent hVISTA-ECD (amino acids …); experiment: SPR 37C, Ab on Protein A, hVISTA-ECD 50-5 nM, pH 6.0, average
Summary of the method: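 Biacore T100 at 37C: antibodies (IgG1.3 format, 25 nM in PBST pH 7.4) captured on Protein A, then 50 - 5 nM monovalent hVISTA-ECD injected in pH 7.4 or 6.0 running buffer. Reference- and blank-subtracted sensorgrams fit to 1:1 model; KD = koff/kon.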

[5] = target: T1, monovalent hVISTA-ECD (amino acids …); experiment: SPR 37C, Ab on Protein A, hVISTA-ECD 50-5 nM, pH 7.4, average
Method: Binding of several preparations of each of the ‘029 progeny clones and of the parent ‘029 antibodies, formatted as IgG1.3 antibodies, to human VISTA at pH 6.0 and 7.4 was measured by Surface plasmon resonance (SPR). SPR analysis was performed to measure koff and KD binding affinity measurements for VISTA Abs at acidic and neutral pHs using a Biacore® T100 instrument (GE Healthcare). […] Antibodies were diluted to 25 nM in PBST pH 7.4, and were captured across active biosensor flow cells at 5 ul/min for 60 seconds. A concentration series of 50 - 5 nM monovalent hVISTA-ECD (SEQ ID NO: 325) was prepared in pH 7.4 and 6.0 running buffers, and was injected over the captured antibodies at 40 ul/min to measure association and dissociation. Two 15 second injections of 10 mM glycine pH 1.5 were used to regenerate the Protein A capture surface between assay cycles. Rate constants ka (kₒₙ) and kd (koff) were derived from reference flow cell and 0 nM blank-subtracted sensorgrams, and were fit to a 1:1 binding model in Biacore® T200 Evaluation Software v.2.0. The affinity constant, KD was calculated as the ratio of rate constants koff/kₒₙ for each VISTA antibody.

[6] = target: T1, monovalent hVISTA-ECD (amino acids …); experiment: SPR 37C, Ab on Protein A, hVISTA-ECD 50-0.2 nM, column headed pH 7 (running buffer pH 7.4 in the text)
Method: as §2

[7] = target: T1, monovalent hVISTA-ECD (amino acids …); experiment: SPR 37C, Ab on Protein A, hVISTA-ECD 50-5 nM, pH 6.0, average; ka printed Too fast, KD ND
[8] = target: T2, human VISTA on cells (293T cells ectopically expressing full-length human VISTA); AML3 cells and human … (human, UniProt Q9H7M9 33-311); experiment: cell-based or functional assay
T2 sequence: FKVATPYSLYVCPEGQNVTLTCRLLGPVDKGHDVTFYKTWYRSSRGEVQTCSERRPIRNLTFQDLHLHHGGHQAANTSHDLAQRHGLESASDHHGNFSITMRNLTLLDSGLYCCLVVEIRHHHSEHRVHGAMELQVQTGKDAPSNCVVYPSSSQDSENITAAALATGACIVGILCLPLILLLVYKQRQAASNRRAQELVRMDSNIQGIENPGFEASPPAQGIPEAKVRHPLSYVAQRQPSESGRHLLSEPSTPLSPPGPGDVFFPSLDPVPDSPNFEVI

[9] = target: T3, avidin (ThermoFisher Scientific catalog #21128) (UniProt P02701 25-152); experiment: SPR 25C, Ab on Protein A, pH 6 and pH 7.4
T3 construct: pI control protein
T3 sequence (P02701 25-152 limits assumed): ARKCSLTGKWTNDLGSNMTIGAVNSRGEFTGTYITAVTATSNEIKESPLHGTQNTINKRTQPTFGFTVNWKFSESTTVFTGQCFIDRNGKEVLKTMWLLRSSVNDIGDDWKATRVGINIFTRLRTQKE

[10] = target: T4, BSA (Calbiochem catalog #126593) (UniProt P02769 25-607); experiment: SPR 25C, Ab on Protein A, pH 6 and pH 7.4
T4 construct: pI control protein
T4 sequence (P02769 25-607 limits assumed): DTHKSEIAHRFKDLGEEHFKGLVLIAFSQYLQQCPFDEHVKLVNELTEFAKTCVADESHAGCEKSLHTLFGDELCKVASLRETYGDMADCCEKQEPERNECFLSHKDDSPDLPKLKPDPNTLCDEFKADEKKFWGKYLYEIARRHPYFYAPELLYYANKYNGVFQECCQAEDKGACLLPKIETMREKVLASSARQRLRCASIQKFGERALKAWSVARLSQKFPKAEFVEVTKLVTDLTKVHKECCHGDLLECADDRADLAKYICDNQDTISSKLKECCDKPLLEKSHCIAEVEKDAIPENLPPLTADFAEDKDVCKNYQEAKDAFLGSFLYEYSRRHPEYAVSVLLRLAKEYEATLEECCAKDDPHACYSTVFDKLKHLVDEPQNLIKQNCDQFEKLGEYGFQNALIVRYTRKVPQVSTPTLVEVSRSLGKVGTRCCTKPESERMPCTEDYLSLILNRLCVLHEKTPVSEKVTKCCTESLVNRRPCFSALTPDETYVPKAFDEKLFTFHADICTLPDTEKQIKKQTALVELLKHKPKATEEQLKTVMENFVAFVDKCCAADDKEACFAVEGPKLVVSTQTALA

[11] = target: T1, monovalent hVISTA-ECD (amino acids …); experiment: SPR, Ab on Protein A, hVISTA 100-7.8 nM, pH 7.4 (second row of this ligand)

B1: P1-061015.IgG1.3 (antibody, V domains shown)
VH: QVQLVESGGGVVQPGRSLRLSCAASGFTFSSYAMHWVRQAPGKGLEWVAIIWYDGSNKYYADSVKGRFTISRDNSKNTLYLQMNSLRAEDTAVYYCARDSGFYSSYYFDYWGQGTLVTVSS
VL: EIVLTQSPATLSLSPGERATLSCRASQSVSSSYLAWYQQKPGQAPRLLIYDASNRATGIPARFSGSGSGTDFTLTISSLEPEDFATYYCQQYNSYPYTFGQGTKLEIKR
notes: IgG1.3
B1 was tested, and the “7.4 KD/ 6.0 KD” value [1] was 8.2, the “7.4 kd/ 6.0 kd” value [1] was 1.1 and the Kd [2] was 5.12 nM. It also gave a koff [2] of 0.00168 s⁻¹, a kon [2] of 329000 M⁻¹ s⁻¹ and a koff [3] of 0.0014 s⁻¹. For the same binder, the Kd [4] was 0.54 nM, the koff [4] was 0.00095 s⁻¹ and the kon [4] was 1.8e+06 M⁻¹ s⁻¹. It also gave a Kd [5] of 8.8 nM, a koff [5] of 0.002 s⁻¹ and a kon [5] of 230000 M⁻¹ s⁻¹. It also gave a koff [6] of 0.0023 s⁻¹.

B2: P1-068740 (antibody, human IgG1, kappa, V domains shown)
VH: QVQLVESGGGVVQPGRSLRLSCAASGFTFSDYAMHWVRQAPGKGLEWVAIIWYDGSDKDYADSVKGRFTISRDNSKNTLYLQMNSLRAEDTAVYYCARDSGFYDSYYFDDWGQGTLVTVSS
VL: B1 VL
notes: IgG1.3
B2 gave a koff [7] of 0.047 s⁻¹.

B3: VISTA.5 (mAb1) (antibody, V domains shown)
VH: AVQLQESGPGLVRPSQSLSLTCTVTDYSITSDYAWNWIRQFPGSKLEWLGFIGYSGNTNYNPSLESRISITRHTSKNQFFLHLNSMTTEDTATYYCARSLYGGSHWYFDVWGAGTTVTVSS
VL: DIVLTQSPASLAVSLGQRATISCRGSESVEYYGTILMQWYQQKPGQPPKLLIYGASNVESGVPARFSGSGSGTDFSLNIHPVEEDDIAMYFCQQSRKVPWTFGGGTKLEIK
In the case of B3, the “EC50, AML3 viability (Cell Titer Glo) with anti-human IgG secondary antibody-drug conjugate” value [8] is reported as 0.485 µg/mL.

B4: P1-068767.IgG1.3 (antibody, V domains shown)
VH: EVQLVESGGGLVQPGKSLRLSCAASGFTLEDYAMHWVRQAPGKGLEWVSGIDWNSENIGYADSVKGRFTISRDNAKNSLYLQMNSLRTEDTALYYCAKVPGYSGGWIDAEDDWGQGTMVTVSS
VL: not shown
notes: IgG1.3; also called P1-068767-22; P1-068767 hIgG1.3f
B4: no binding (tested: 10 RU; analyte 100-10 nM) [9]; no binding (tested: 10 RU; analyte 100-10 nM) [10].

B5: P1-72000 (P1-061029_F100fE_V102D) (antibody, V domains shown)
VH: B4 VH with E30D, D52N, E56A
VL: not shown
notes: also called P1-072000-3
With B5 the “7.4 KD/ 6.0 KD” value [1] was 258, the “7.4 kd/ 6.0 kd” value [1] was 14.2 and the Kd [2] was 2700 nM. For the same binder, the koff [2] was 0.038 s⁻¹, the kon [2] was 14000 M⁻¹ s⁻¹ and the Kd [11] was 1400 nM. The koff [11] was 0.032 s⁻¹ and the kon [11] was 24000 M⁻¹ s⁻¹.
